# In the supplement of paper PMC12764529:
# ± gives the half width of the 95% confidence interval.
# How the values were obtained:
# [1] = folding stability dG unfold from trypsin proteolysis; higher = more stable
# Outline: (§1)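 Unfolding free energy was derived, per protease or combined, against a sequence-predicted unfolded-state K50 and a shared folded-state K50, starting from K50 inferred by Bayesian fitting of sequencing counts. Digestion with trypsin and chymotrypsin was carried out on designed mini-proteins under 80 residues without cysteine in a PA-tagged cDNA display construct. Only designs with AlphaFold2 dimer inter-PAE above 15 were kept.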
# [2] = folding stability dG unfold from chymotrypsin proteolysis; higher = more stable
# Outline: as §1
# [3] = folding stability dG unfold (combined trypsin and chymotrypsin); higher = more stable
# Outline: as §1
Sequence,folding stability dG unfold [1] [kcal/mol],folding stability dG unfold [2] [kcal/mol],folding stability dG unfold [3] [kcal/mol]
SAGGSAPGEPIFIRWKIEHPNGNPWTIPFPIKTEEQALEQAIRFAESIAKKLGNPNVKIKIDEIIPSAGGSA [r15_698_TrROS],1.11 ± 0.12,0.575 ± 0.44,0.914 ± 0.21
SGSMTLVSESTVPEKGTTLLTLKFPNGAPATVTLNPDGSSTTTFPATGLPFTVTVGSGTLTVTTPAALALSA [r9_233_JUSTAS],1.01 ± 0.1,1.42 ± 0.12,1.23 ± 0.18
SANVRRREIRIPAKDMPPNQIRDALRDLGFPPSKIENLDIERHKGNMITVKIYWTFENGQKQKIELHIPSAG [r14_30_TrROS],-0.105 ± 0.24,1.29 ± 0.21,1.11 ± 0.19
SLSPSTPISSEEEAKEAAEKLAEEVREELGEDLPIVVDIERKELEDGTIVVKFTFYVPETGEKLLEVEVGSA [r9_794_JUSTAS],1.2 ± 0.097,1.56 ± 0.049,1.27 ± 0.16
SAGGSAGGSAGSVLILVSREDLEALLEAGAEIVEVSDDYVLIRVEVPEVEVLDENGKRLDSAGGSAGGSAGG [r11_828_TrROS_Hall],1.9 ± 0.042,2.43 ± 0.056,2.21 ± 0.077
SAGGSAGGSGLEILEEREAVFPLHGLVVKREVVVRSPDGVPLVFVEVEAHPELLPLVERLFERSAGGSAGGS [r12_457_TrMRF],0.212 ± 0.054,-0.0155 ± 0.13,0.138 ± 0.099
SAGGSAGGSMTAEEIAEKFPGLPPEQIKNIPIERHPDGYMTVNIEHRGPNGNKQEQQVEIPVDSAGGSAGGS [r12_1050_TrROS],0.509 ± 0.04,0.505 ± 0.037,0.483 ± 0.16
SAMKWSEVVVSYPSDRWYAEIYTPGPGGELTSVSYREFDSLEELEQWIEEKAPPGEVEVKREPAPPELLSAG [r14_964_JUSTAS],1.17 ± 0.033,0.722 ± 0.094,0.967 ± 0.051
SAGLKIVEDIRKKLEEEGYDVKVKYEIKPEPKDGKYIITIEVTIKDEKGNEVPIGKETIVIPLEEYEKSSAG [r5_413_JUSTAS],1.27 ± 0.18,2.74 ± 0.083,2.28 ± 0.16
SSISIPGLTEEKAAELAKRLRELFPGAEVKTTTFPEKKVVVVDVTLPVVDADGKLVGTVKLRLVLVVEDDSA [r9_378_TrMRF],4.6 ± 0.19,4.55 ± 0.21,4.84 ± 0.34
SAGGSAGMMTDVEVEEYPGTGLVRITIRTPDAVVSGEGRFLSPELLEITISFPGAGKRTNELIPVRSAGGSA [r15_837_JUSTAS],1.23 ± 0.072,1.26 ± 0.048,1.2 ± 0.088
SAGGEVKPGEEVEVEVLVLVRGEDGELYLVRVKMRFRVKEDGTVEMEVEVEVVRVPLSEEELKALLEASAGG [r13_544_TrROS_Hall],4.43 ± 0.14,5.99 ± 0.26,> 6
SAGGSAGGSAGEFEIIIPPGVAEERPELLEEIRDRFKPLGLEVEVEYIPGEGYVRVKVKGSAGGSAGGSAGG [r11_357_TrMRF],1.36 ± 0.061,1.64 ± 0.036,1.55 ± 0.11
SAGGSMITFTVTPDATVEFPDGVTVTLIPGEGKWVATAGEKEIEAPYTPLPDDTYVVTLELPEGIAASAGGS [r16_245_JUSTAS],0.337 ± 0.046,-0.101 ± 0.27,0.369 ± 0.13
SAGGMKTVNLTYTRYLPDKTLEEAKELAKKDLESRGLKILSLPVSREPGAGVVTVSATVEVAPPSLLSAGGS [r16_287_JUSTAS],3.67 ± 0.12,3.99 ± 0.1,3.82 ± 0.27
SAGGSAGGSAGASPTAPAVTVEVKTEEVPNNDLLKTTTTTYFPGTGTTVTTETILPPGLGSAGGSAGGSAGG [r11_746_JUSTAS],0.187 ± 0.053,-0.269 ± 0.086,-0.00225 ± 0.12
SAGGEKTTLTLTLTLTLPPVTTVTYDPETGELRVETRTTTLTLTITVTADSPEEAERALRELLKKLGLSAGG [r13_35_TrROS_Hall],4.4 ± 0.17,6.41 ± 0.27,> 6
SAGGSAGGSAGMITIERIPGSGKLVITITDPGSGKVLTIPFDNADPKEALAKAKELLKKLSAGGSAGGSAGG [r17_386_JUSTAS],3.25 ± 0.071,3.19 ± 0.048,3.25 ± 0.075
SEKVKKELNEAGYPVKDIKFVPEKGYAYITVEVYVPEVDKKVEKEIVIPFPDSATPEQLTEAARKALEADSA [r9_184_TrMRF],3.04 ± 0.11,3.04 ± 0.076,3.09 ± 0.092
SAGGSAGGSKVKIETVENEDGVKFERVVDEETGKTVFLAKNKKTGKLYLFVITPDGEIKVFELSAGGSAGGS [r12_474_TrROS_Hall],1.42 ± 0.033,2.6 ± 0.049,2.27 ± 0.089
SAGPEREVEVETLVIEAEDGKERLVLRLVRVDGRLYLEVRRYRDGKWEEVARFEAPEEITLSPELLKALSAG [r5_490_TrROS_Hall],4.09 ± 0.091,4.219 ± 0.039,4.16 ± 0.078
